T1: FcγRIIa R (human, UniProt P12318 34-217)
T1 construct: extracellular domain; also called FcgRIIa R type; 2aR
T1 sequence (looked up): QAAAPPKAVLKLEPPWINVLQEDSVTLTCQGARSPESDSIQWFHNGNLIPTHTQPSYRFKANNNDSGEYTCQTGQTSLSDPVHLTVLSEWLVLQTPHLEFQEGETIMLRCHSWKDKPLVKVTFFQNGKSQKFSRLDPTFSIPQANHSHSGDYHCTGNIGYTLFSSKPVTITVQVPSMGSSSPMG

T2: FcγRIIb (human, UniProt P31994 43-217)
T2 construct: extracellular domain; also called FcgRIIb; 2b
T2 sequence (looked up): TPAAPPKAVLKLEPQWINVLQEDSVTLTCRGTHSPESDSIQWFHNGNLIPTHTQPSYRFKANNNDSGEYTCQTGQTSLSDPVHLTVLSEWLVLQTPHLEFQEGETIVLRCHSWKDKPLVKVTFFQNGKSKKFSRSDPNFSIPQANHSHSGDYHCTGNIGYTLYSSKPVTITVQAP

B1: GpH7-A5/GpH7-B3 variant H268_08L/GpL16-k0 (antibody, human IgG1, kappa)
heavy 1: not shown
heavy 2: not shown
light: DIVMTQSPLSLPVTPGEPASISCQASESLVHSNRNTYLHWYLQKPGQSPQLLIYKVSNRFSGVPDRFSGSGSGTDFTLKISRVEAEDVGVYYCSQNTHVPPTFGQGTKVEIERTVAAPSVFIFPPSDEQLKSGTASVVCLLNNFYPREAKVQWKVDNALQSGNSQESVTEQDSKDSTYSLSSTLTLSKADYEKHKVYACEVTHQGLSSPVTKSFNRGEC
notes: heterodimerized antibody, mutation in the GpH7-B3 chain only; also called He Ab
B2: GpH7-A5/GpH7-B3 variant Q295_05P/GpL16-k0 (antibody, human IgG1, kappa)
heavy 1: not shown
heavy 2: not shown
light: B1 light
notes: as for B1
B3: GpH7-A5/GpH7-B3 variant Y296_05P/GpL16-k0 (antibody, human IgG1, kappa)
heavy 1: not shown
heavy 2: not shown
light: B1 light
notes: as for B1
B4: GpH7-A5/GpH7-B3 variant Y296_03V/GpL16-k0 (antibody, human IgG1, kappa)
heavy 1: not shown
heavy 2: not shown
light: B1 light
notes: as for B1
B5: GpH7-A5/GpH7-B3 variant Q295_15Y/GpL16-k0 (antibody, human IgG1, kappa)
heavy 1: not shown
heavy 2: not shown
light: B1 light
notes: as for B1
B6: GpH7-A5/GpH7-B3 variant Q295_11K/GpL16-k0 (antibody, human IgG1, kappa)
heavy 1: not shown
heavy 2: not shown
light: B1 light
notes: as for B1
B7: GpH7-A5/GpH7-B3 variant Q295_20W/GpL16-k0 (antibody, human IgG1, kappa)
heavy 1: not shown
heavy 2: not shown
light: B1 light
notes: as for B1
B8: GpH7-A5/GpH7-B3 variant Q295_16H/GpL16-k0 (antibody, human IgG1, kappa)
heavy 1: not shown
heavy 2: not shown
light: B1 light
notes: as for B1
B9: GpH7-A5/GpH7-B3 variant S298_09D/GpL16-k0 (antibody, human IgG1, kappa)
heavy 1: not shown
heavy 2: not shown
light: B1 light
notes: as for B1
B10: GpH7-A5/GpH7-B3 variant Y296_01G/GpL16-k0 (antibody, human IgG1, kappa)
heavy 1: not shown
heavy 2: not shown
light: B1 light
notes: as for B1
B11: GpH7-A5/GpH7-B3 variant Q295_03V/GpL16-k0 (antibody, human IgG1, kappa)
heavy 1: not shown
heavy 2: not shown
light: B1 light
notes: as for B1
B12: GpH7-A5/GpH7-B3 variant Q295_01G/GpL16-k0 (antibody, human IgG1, kappa)
heavy 1: not shown
heavy 2: not shown
light: B1 light
notes: as for B1
B13: GpH7-A5/GpH7-B3 variant S298_04F/GpL16-k0 (antibody, human IgG1, kappa)
heavy 1: not shown
heavy 2: not shown
light: B1 light
notes: as for B1
B14: GpH7-A5/GpH7-B3 variant P271_15Y/GpL16-k0 (antibody, human IgG1, kappa)
heavy 1: not shown
heavy 2: not shown
light: B1 light
notes: as for B1

In one experiment the target is T1, FcγRIIa R. The experiment in a line: SPR (Biacore), antibody captured, FcγR as analyte; relative binding. As for the experimental part: (§1) The heterodimerized antibodies He Abs in which one of the H chains was introduced with an alteration were assayed for their binding activities to each activating FcγR and inhibitory FcγR according to the method described in Example 4. […] The activating FcγRs in FIGS. 26, 27, 28, and 29 are FcγRIa, FcγRIIa (R), FcγRIIa (H), and FcγRIIIa, respectively.
(§2) Analysis of interaction between objective antibody and the FcγR was carried out using Biacore T100 (GE Healthcare). HBS-EP+ (GE Healthcare) was used as the running buffer, and the measurement temperature was set to 25° C. Chips produced by immobilizing the antigen peptide by the amine coupling method to a Series S Sencor Chip CM5 (GE Healthcare), or alternatively, chips produced by allowing preliminarily biotinylated antigen peptides to interact with and immobilize onto a Series S Sensor Chip SA (certified) (GE Healthcare) were used. Antibodies of interest were captured onto an antigen peptide-immobilized chip, and allowed to interact to each FcγR diluted with running buffer. To regenerate and repeatedly use the chip, the antibodies captured on the chip were washed off by reacting 10 mM glycine-HCl, pH 1.5.
As for B1, the “He/Con_2aR (IIaR binding)” value is 85 % of GpH7-A5/GpH7-B3/GpL16-k0 (=100).

B2: the “He/Con_2aR (IIaR binding)” value was 87.4 % of GpH7-A5/GpH7-B3/GpL16-k0 (=100).

B3: the “He/Con_2aR (IIaR binding)” value was 47.7 % of GpH7-A5/GpH7-B3/GpL16-k0 (=100).

B4: the “He/Con_2aR (IIaR binding)” value is 96.2 % of GpH7-A5/GpH7-B3/GpL16-k0 (=100).

As for B5, the “He/Con_2aR (IIaR binding)” value is 82.8 % of GpH7-A5/GpH7-B3/GpL16-k0 (=100).

Take B6: the “He/Con_2aR (IIaR binding)” value was 88.9 % of GpH7-A5/GpH7-B3/GpL16-k0 (=100).

Turning to B7, the “He/Con_2aR (IIaR binding)” value was 60 % of GpH7-A5/GpH7-B3/GpL16-k0 (=100).

Consider B8, for which the “He/Con_2aR (IIaR binding)” value is 81.3 % of GpH7-A5/GpH7-B3/GpL16-k0 (=100).

On to B9, for which the “He/Con_2aR (IIaR binding)” value was 67.8 % of GpH7-A5/GpH7-B3/GpL16-k0 (=100).

As for B10, the “He/Con_2aR (IIaR binding)” value is 95.8 % of GpH7-A5/GpH7-B3/GpL16-k0 (=100).

On to B11, for which the “He/Con_2aR (IIaR binding)” value was 91.2 % of GpH7-A5/GpH7-B3/GpL16-k0 (=100).

Regarding B12, the “He/Con_2aR (IIaR binding)” value was 60.9 % of GpH7-A5/GpH7-B3/GpL16-k0 (=100).

B13: the “He/Con_2aR (IIaR binding)” value is 84 % of GpH7-A5/GpH7-B3/GpL16-k0 (=100).

In the case of B14, the “He/Con_2aR (IIaR binding)” value is 70.7 % of GpH7-A5/GpH7-B3/GpL16-k0 (=100).

The target in the next experiment is T2, FcγRIIb. The description is as above. As for the experimental part:
as §1, §2
With B1, the “He/Con_2b (IIb binding)” value was 67.8 % of GpH7-A5/GpH7-B3/GpL16-k0 (=100).

For B2, the “He/Con_2b (IIb binding)” value was 67.5 % of GpH7-A5/GpH7-B3/GpL16-k0 (=100).

As for B3, the “He/Con_2b (IIb binding)” value was 36.6 % of GpH7-A5/GpH7-B3/GpL16-k0 (=100).

In the case of B4, the “He/Con_2b (IIb binding)” value is 79.3 % of GpH7-A5/GpH7-B3/GpL16-k0 (=100).

B5: the “He/Con_2b (IIb binding)” value is 65.4 % of GpH7-A5/GpH7-B3/GpL16-k0 (=100).

B6: the “He/Con_2b (IIb binding)” value is 70.4 % of GpH7-A5/GpH7-B3/GpL16-k0 (=100).

Turning to B7, the “He/Con_2b (IIb binding)” value was 44.4 % of GpH7-A5/GpH7-B3/GpL16-k0 (=100).

Consider B8, for which the “He/Con_2b (IIb binding)” value was 62.7 % of GpH7-A5/GpH7-B3/GpL16-k0 (=100).

For B9, the “He/Con_2b (IIb binding)” value was 48.3 % of GpH7-A5/GpH7-B3/GpL16-k0 (=100).

As for B10, the “He/Con_2b (IIb binding)” value is 79.3 % of GpH7-A5/GpH7-B3/GpL16-k0 (=100).

For the molecule B11, the “He/Con_2b (IIb binding)” value is 75.7 % of GpH7-A5/GpH7-B3/GpL16-k0 (=100).

Consider B12, for which the “He/Con_2b (IIb binding)” value is 46 % of GpH7-A5/GpH7-B3/GpL16-k0 (=100).

Regarding B13, the “He/Con_2b (IIb binding)” value is 65.4 % of GpH7-A5/GpH7-B3/GpL16-k0 (=100).

B14: the “He/Con_2b (IIb binding)” value is 52.3 % of GpH7-A5/GpH7-B3/GpL16-k0 (=100).

A further experiment addresses T1, FcγRIIa R. Description: SPR; He/Con_2aR divided by He/Con_2b (FcγRIIb as reference). On the procedure:
as §1, §2
Regarding B1, the “IIaR/IIb (He_2aR/2b)” value came out at 1.25 ratio.

On to B2, for which the “IIaR/IIb (He_2aR/2b)” value was determined as 1.3 ratio.

With B3, the “IIaR/IIb (He_2aR/2b)” value came out at 1.3 ratio.

Regarding B4, the “IIaR/IIb (He_2aR/2b)” value is 1.21 ratio.

Regarding B5, the “IIaR/IIb (He_2aR/2b)” value came out at 1.27 ratio.

In the case of B6, the “IIaR/IIb (He_2aR/2b)” value turned out to be 1.26 ratio.

Turning to B7, the “IIaR/IIb (He_2aR/2b)” value was found to be 1.35 ratio.

B8: the “IIaR/IIb (He_2aR/2b)” value was found to be 1.3 ratio.

With B9, the “IIaR/IIb (He_2aR/2b)” value was 1.4 ratio.

As to B10, the “IIaR/IIb (He_2aR/2b)” value was 1.21 ratio.

For B11, the “IIaR/IIb (He_2aR/2b)” value worked out at 1.2 ratio.

On to B12, for which the “IIaR/IIb (He_2aR/2b)” value was determined as 1.32 ratio.

For B13, the “IIaR/IIb (He_2aR/2b)” value turned out to be 1.29 ratio.

Consider B14, for which the “IIaR/IIb (He_2aR/2b)” value came to 1.35 ratio.

The values above are taken from US20180155451A1 (published 2018).
